According to patent US20180298098A1 (VAR2 PHARMACEUTICAL, published 2018):

Key:
[1] = biological target: CSPG (bovine) (D8428, Sigma) (bovine) (UniProt P21793); assay: quartz crystal microbalance (Attana A100), CSPG coated; FCR3 Baculo
[2] = biological target: CSPG (bovine) (D8428, Sigma) (bovine) (UniProt P21793); assay: quartz crystal microbalance (Attana A100), CSPG coated; 3D7 Baculo
[3] = biological target: T1, CSPG (bovine) (D8428, Sigma) (bovine, UniProt P21793 31-360, carries chondroitin sulfate A (CSA) glycosaminoglycan chain(s); attachment site not stated); assay: quartz crystal microbalance (Attana A100), CSPG coated
T1 construct: Commercial proteoglycan coated on the chip or plate; also called chondroitin sulfate proteoglycan; CSA proteoglycan (CSPG)
T1 sequence (P21793 31-360): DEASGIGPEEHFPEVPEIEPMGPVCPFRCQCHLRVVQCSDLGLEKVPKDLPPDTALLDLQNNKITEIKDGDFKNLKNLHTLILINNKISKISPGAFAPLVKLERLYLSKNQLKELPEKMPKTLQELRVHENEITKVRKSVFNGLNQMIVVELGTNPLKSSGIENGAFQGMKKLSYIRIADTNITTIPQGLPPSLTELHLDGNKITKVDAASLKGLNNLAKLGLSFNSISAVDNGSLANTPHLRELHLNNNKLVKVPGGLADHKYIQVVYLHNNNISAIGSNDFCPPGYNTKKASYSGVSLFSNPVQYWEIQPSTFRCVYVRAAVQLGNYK

[4] = biological target: T1, CSPG (bovine) (D8428, Sigma); assay: quartz crystal microbalance (Attana A100), CSPG coated; 3D7 Baculo
Experimental: All buffers and reagents were filtered to 0.2 μm. The ligand was CSPG (Bovine) (D8428, Sigma) or HSPG (H4777, Sigma), coated at a concentration of 100 μg/ml. Coating was done in steady state by adding ligand solution and incubation 30 minutes at room temperature. This was followed by blocking the plate with PBS containing 0.1% Ig-free BSA (BSA-50, Rockland), 30 minutes at room temperature. The Attana A100 was washed with 1% SDS prior to every experiment, using the manufacturers predefined daily wash program. Following the wash, the running buffer was switched to PBS at a flow rate of 25 μL/min, at 25° C., and the machine was allowed to stabilize at a maximum change in frequency of 0.5 Hz/min. […] Prior to sample injection PBS was injected as a blank. Analyte was injected in a 1:3 dilution series (0.25 μg/ml-60 μg/ml) starting with the lowest concentration. Association time was set to 84 seconds and disassociation time to 5 minutes. […] The data collected was processed in the Attester Evaluation software (Attana AB). Curves were fitted in a simple 1:1 model. kₒₙ and koff were determined by curve fitting and KD was calculated based KD=koff/kₒₙ.

CSPG (bovine) (D8428, Sigma) (bovine), sequence (P21793 31-360): as above

Molecule	Kd [1]	also measured
VAR2CSA DBL2X-DBL4ε, FCR3 (Baculo)	2.4 nM	–
VAR2CSA ID1-DBL4ε, FCR3 (Baculo)	8.6 nM	–
VAR2CSA FV2, FCR3 (Baculo)	5.2 nM	–
VAR2CSA ID1-DBL3ε, FCR3 (Baculo)	0.3 nM	–
VAR2CSA DBL1-ID2b, FCR3 (Baculo)	1.5 nM	–
VAR2CSA FV2, 3D7 (Baculo)	–	Kd [2]: 8.2 nM
VAR2CSA ID1-DBL2Xa, 3D7 (Baculo) (other, not shown: C-terminal V5 and His tag of the modified pAcGP67-A vector) LSFILNSSDANNPSEKIQKNNDEVCNCNESGIASVEQEQISDPSSNKTCITHSSIKANKKKVCKHVKLGVRENDKDLRVCVIEHTSLSGVENCCCQDFLRILQENCSDNKSGSSSNGSCNNKNQEACEKNLEKVLASLTNCYKCDKCKSEQSKKNNKNWIWKKSSGKEGGLQKEYANTIGLPPRTQSLCLVVCLDEKGKKTQELKNIRTNSELLKEWIIAAFHEGKNLKPSHEKKNDDNGKKLCKALEYSFADYGDLIKGTSIWDNEYTKDLELNLQKIFGKLFRKYIKKNNTAEQDTSYSSLDELRESWWNTNKKYIWLAMKHGAGMNSTTCCGDGSVTGSGSSCDDIPTIDLIPQYLRFLQEWVEHFCKQRQEKVKPVIENCKSCKESGGTCNGECKTECKNKCEVYKKFIEDCKGGDGTAGSSWVKRWDQIYKRYSKYIEDAKRNRKAGTKNCGPSSTTNAA	–	binding result [3]: no binding (tested: 0.25 µg/ml-60 µg/ml)
VAR2CSA ID1-DBL2Xb, 3D7 (Baculo) (other, The 3D7 forward primer begins at LSFILN; not shown: C-terminal V5 and His tag of the modified pAcGP67-A vector) NYIKGDPYFAEYATKLSFILNSSDANNPSEKIQKNNDEVCNCNESGIASVEQEQISDPSSNKTCITHSSIKANKKKVCKHVKLGVRENDKDLRVCVIEHTSLSGVENCCCQDFLRILQENCSDNKSGSSSNGSCNNKNQEACEKNLEKVLASLTNCYKCDKCKSEQSKKNNKNWIWKKSSGKEGGLQKEYANTIGLPPRTQSLCLVVCLDEKGKKTQELKNIRTNSELLKEWIIAAFHEGKNLKPSHEKKNDDNGKKLCKALEYSFADYGDLIKGTSIWDNEYTKDLELNLQKIFGKLFRKYIKKNNTAEQDTSYSSLDELRESWWNTNKKYIWLAMKHGAGMNSTTCCGDGSVTGSGSSCDDIPTIDLIPQYLRFLQEWVEHFCKQRQEKVKPVIENCKSCKESGGTCNGECKTECKNKCEVYKKFIEDCKGGDGTAGSSWVKRWDQIYKRYSKYIEDAKRNRKAGTKNCGPSSTTNAAENKCVQSDIDSFFKHLIDIGLTTPSSYLSIVLDDNICGADKAPWTTYTTYTTTEKCNKETDKSKLQQCNTAVVVNVPSPLGNTPHGYKY	–	Kd [4]: 21.8 nM
VAR2CSA ID1-ID2a, 3D7 (Baculo) (other, not shown: C-terminal V5 and His tag of the modified pAcGP67-A vector) NYIKGDPYFAEYATKLSFILNSSDANNPSEKIQKNNDEVCNCNESGIASVEQEQISDPSSNKTCITHSSIKANKKKVCKHVKLGVRENDKDLRVCVIEHTSLSGVENCCCQDFLRILQENCSDNKSGSSSNGSCNNKNQEACEKNLEKVLASLTNCYKCDKCKSEQSKKNNKNWIWKKSSGKEGGLQKEYANTIGLPPRTQSLCLVVCLDEKGKKTQELKNIRTNSELLKEWIIAAFHEGKNLKPSHEKKNDDNGKKLCKALEYSFADYGDLIKGTSIWDNEYTKDLELNLQKIFGKLFRKYIKKNNTAEQDTSYSSLDELRESWWNTNKKYIWLAMKHGAGMNSTTCCGDGSVTGSGSSCDDIPTIDLIPQYLRFLQEWVEHFCKQRQEKVKPVIENCKSCKESGGTCNGECKTECKNKCEVYKKFIEDCKGGDGTAGSSWVKRWDQIYKRYSKYIEDAKRNRKAGTKNCGPSSTTNAAENKCVQSDIDSFFKHLIDIGLTTPSSYLSIVLDDNICGADKAPWTTYTTYTTTEKCNKETDKSKLQQCNTAVVVNVPSPLGNTPHGYKYACQCKIPTNEETCDDRKEYMNQWSCGSARTMKRGYKNDNYELCKYNGVDVKPTTVRSNSSKLD	–	Kd [4]: 5.7 nM
